The results in this text go back to patent US20220363770A1.

Changes are numbered by the printed parent chain.

The target of test [1] is human PAC1 receptor extracellular domain (ECD) (human) (UniProt P41586). The test is described as follows: yeast-displayed Fab, FACS, 10 nM PAC1 receptor ECD.
Test [2] concerns the target human CGRP receptor extracellular domain (ECD) (human) (UniProt Q16602). Put plainly: yeast-displayed Fab, FACS, 10 nM human CGRP receptor ECD.
Test [3] has the same target. Put plainly: yeast-displayed Fab, FACS, 1 nM human CGRP receptor ECD.

Sequence of human CGRP receptor extracellular domain (ECD) (human) (Q16602 23-138 limits assumed, chain 1 of 2): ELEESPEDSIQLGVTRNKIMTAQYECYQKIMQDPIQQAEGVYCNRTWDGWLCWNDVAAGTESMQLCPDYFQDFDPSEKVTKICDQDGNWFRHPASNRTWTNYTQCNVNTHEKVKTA
Sequence of human CGRP receptor extracellular domain (ECD) (human) (chain, as listed by the source limits assumed, chain 2 of 2): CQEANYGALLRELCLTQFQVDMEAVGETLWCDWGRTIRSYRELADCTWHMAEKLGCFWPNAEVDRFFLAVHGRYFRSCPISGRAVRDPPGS
Sequence of human PAC1 receptor extracellular domain (ECD) (human) (P41586 24-153): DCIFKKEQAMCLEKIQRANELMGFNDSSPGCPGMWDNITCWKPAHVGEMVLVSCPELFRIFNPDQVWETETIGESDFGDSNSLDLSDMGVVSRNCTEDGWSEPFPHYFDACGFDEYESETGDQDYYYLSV

B1: anti-CGRP receptor variant 05, yeast-displayed Fab (Fab, V domains shown)
VH: QVQLVESGGGVVQPGRSLRLSCAASGFTFSSFGMHWVRQAPGKGLEWVAVISFDGSIKYSVDSVKGRFTISRDNSKNTLFLQMNSLRAEDTAVYYCARDRLNYYESSGYYHYKYYGMAVWGQGTTVTVSS
VL: QSVLTQPPSVSAAPGQKVTISCSGSFSNIGRSTVSWYQQLPGTAPKLLIYDNRWRAGGIPDRFSGSKSGTSATLGITGLQTGDEADYYCGTWDYQWKAVVFGGGTKLTVLG
For the molecule B1, in test [1], the Mutant vs. 4E4.2 Parent B/D Ratio was 1.8 fold and the Normalized Binding Signal/Display Signal (B/D) is 0.2.

B2: 4E4.2 parental Fab, yeast-displayed (Fab, V domains shown)
VH: B1 VH
VL: QSVLTQPPSVSAAPGQKVTISCSGSSSNIGNNYVSWYQQLPGTAPKLLIYDNNKRPSGIPDRFSGSKSGTSATLGITGLQTGDEADYYCGTWDSRLSAVVFGGGTKLTVLG
B2: the Mutant vs. 4E4.2 Parent B/D Ratio in test [2], in test [1] and in test [3] was 1 fold in each case. Also, the Normalized Binding Signal/Display Signal (B/D) in test [2] was 0.15; in test [1], 0.11; in test [3], 0.12.

B3: anti-CGRP receptor variant 12, yeast-displayed Fab (Fab, V domains shown)
VH: B1 VH
VL: B1 VL with F26R, S32Y, T33S, W54Y, G57Q, Y94W, Q95A, W96T, K97T, A98S
In the case of B3, in test [1], the Mutant vs. 4E4.2 Parent B/D Ratio came to 1.8 fold and the Normalized Binding Signal/Display Signal (B/D) is 0.19.
